Patent US20230235013A1 (MABSOLVE, published 2023)

B1: anti-CD20 (rituximab) human IgG1 L234D/L235K/G236R (antibody)
heavy: QVQLQQPGAELVKPGASVKMSCKASGYTFTSYNMHWVKQTPGRGLEWIGAIYPGNGDTSYNQKFKGKATLTADKSSSTAYMQLSSLTSEDSAVYYCARSTYYGGDWYFNVWGAGTTVTVSSASTKGPSVFPLAPSSKSTSGGTAALGCLVKDYFPEPVTVSWNSGALTSGVHTFPAVLQSSGLYSLSSVVTVPSSSLGTQTYICNVNHKPSNTKVDKKVEPKSCDKTHTCPPCPAPEDKRGPSVFLFPPKPKDTLMISRTPEVTCVVVDVSHEDPEVKFNWYVDGVEVHNAKTKPREEQYNSTYRVVSVLTVLHQDWLNGKEYKCKVSNKALPAPIEKTISKAKGQPREPQVYTLPPSRDELTKNQVSLTCLVKGFYPSDIAVEWESNGQPENNYKTTPPVLDSDGSFFLYSKLTVDKSRWQQGNVFSCSVMHEALHNHYTQKSLSLSPGK
light: QIVLSQSPAILSASPGEKVTMTCRASSSVSYIHWFQQKPGSSPKPWIYATSNLASGVPVRFSGSGSGTSYSLTISRVEAEDAATYYCQQWTSNPPTFGGGTKLEIKRTVAAPSVFIFPPSDEQLKSGTASVVCLLNNFYPREAKVQWKVDNALQSGNSQESVTEQDSKDSTYSLSSTLTLSKADYEKHKVYACEVTHQGLSSPVTKSFNRGEC
notes: EU numbering; also called 2-7; 1-23; copies: 2 + 2
B2: anti-CD20 (rituximab) human IgG1 L234K/L235R/G236R (antibody)
heavy: QVQLQQPGAELVKPGASVKMSCKASGYTFTSYNMHWVKQTPGRGLEWIGAIYPGNGDTSYNQKFKGKATLTADKSSSTAYMQLSSLTSEDSAVYYCARSTYYGGDWYFNVWGAGTTVTVSSASTKGPSVFPLAPSSKSTSGGTAALGCLVKDYFPEPVTVSWNSGALTSGVHTFPAVLQSSGLYSLSSVVTVPSSSLGTQTYICNVNHKPSNTKVDKKVEPKSCDKTHTCPPCPAPEKRRGPSVFLFPPKPKDTLMISRTPEVTCVVVDVSHEDPEVKFNWYVDGVEVHNAKTKPREEQYNSTYRVVSVLTVLHQDWLNGKEYKCKVSNKALPAPIEKTISKAKGQPREPQVYTLPPSRDELTKNQVSLTCLVKGFYPSDIAVEWESNGQPENNYKTTPPVLDSDGSFFLYSKLTVDKSRWQQGNVFSCSVMHEALHNHYTQKSLSLSPGK
light: QIVLSQSPAILSASPGEKVTMTCRASSSVSYIHWFQQKPGSSPKPWIYATSNLASGVPVRFSGSGSGTSYSLTISRVEAEDAATYYCQQWTSNPPTFGGGTKLEIKRTVAAPSVFIFPPSDEQLKSGTASVVCLLNNFYPREAKVQWKVDNALQSGNSQESVTEQDSKDSTYSLSSTLTLSKADYEKHKVYACEVTHQGLSSPVTKSFNRGEC
notes: EU numbering; also called 2-23; 1-88; copies: 2 + 2
B3: anti-CD20 (rituximab) human IgG1 L234K/L235V/G236R (antibody)
heavy: QVQLQQPGAELVKPGASVKMSCKASGYTFTSYNMHWVKQTPGRGLEWIGAIYPGNGDTSYNQKFKGKATLTADKSSSTAYMQLSSLTSEDSAVYYCARSTYYGGDWYFNVWGAGTTVTVSSASTKGPSVFPLAPSSKSTSGGTAALGCLVKDYFPEPVTVSWNSGALTSGVHTFPAVLQSSGLYSLSSVVTVPSSSLGTQTYICNVNHKPSNTKVDKKVEPKSCDKTHTCPPCPAPEKVRGPSVFLFPPKPKDTLMISRTPEVTCVVVDVSHEDPEVKFNWYVDGVEVHNAKTKPREEQYNSTYRVVSVLTVLHQDWLNGKEYKCKVSNKALPAPIEKTISKAKGQPREPQVYTLPPSRDELTKNQVSLTCLVKGFYPSDIAVEWESNGQPENNYKTTPPVLDSDGSFFLYSKLTVDKSRWQQGNVFSCSVMHEALHNHYTQKSLSLSPGK
light: QIVLSQSPAILSASPGEKVTMTCRASSSVSYIHWFQQKPGSSPKPWIYATSNLASGVPVRFSGSGSGTSYSLTISRVEAEDAATYYCQQWTSNPPTFGGGTKLEIKRTVAAPSVFIFPPSDEQLKSGTASVVCLLNNFYPREAKVQWKVDNALQSGNSQESVTEQDSKDSTYSLSSTLTLSKADYEKHKVYACEVTHQGLSSPVTKSFNRGEC
notes: EU numbering; also called 2-26; 1-91; copies: 2 + 2
B4: anti-CD20 (rituximab) human IgG1 L234Q/L235V/G236R (antibody)
heavy: QVQLQQPGAELVKPGASVKMSCKASGYTFTSYNMHWVKQTPGRGLEWIGAIYPGNGDTSYNQKFKGKATLTADKSSSTAYMQLSSLTSEDSAVYYCARSTYYGGDWYFNVWGAGTTVTVSSASTKGPSVFPLAPSSKSTSGGTAALGCLVKDYFPEPVTVSWNSGALTSGVHTFPAVLQSSGLYSLSSVVTVPSSSLGTQTYICNVNHKPSNTKVDKKVEPKSCDKTHTCPPCPAPEQVRGPSVFLFPPKPKDTLMISRTPEVTCVVVDVSHEDPEVKFNWYVDGVEVHNAKTKPREEQYNSTYRVVSVLTVLHQDWLNGKEYKCKVSNKALPAPIEKTISKAKGQPREPQVYTLPPSRDELTKNQVSLTCLVKGFYPSDIAVEWESNGQPENNYKTTPPVLDSDGSFFLYSKLTVDKSRWQQGNVFSCSVMHEALHNHYTQKSLSLSPGK
light: QIVLSQSPAILSASPGEKVTMTCRASSSVSYIHWFQQKPGSSPKPWIYATSNLASGVPVRFSGSGSGTSYSLTISRVEAEDAATYYCQQWTSNPPTFGGGTKLEIKRTVAAPSVFIFPPSDEQLKSGTASVVCLLNNFYPREAKVQWKVDNALQSGNSQESVTEQDSKDSTYSLSSTLTLSKADYEKHKVYACEVTHQGLSSPVTKSFNRGEC
notes: EU numbering; copies: 2 + 2
B5: anti-CD20 (rituximab) human IgG1 L234R/L235D/G236R (antibody)
heavy: QVQLQQPGAELVKPGASVKMSCKASGYTFTSYNMHWVKQTPGRGLEWIGAIYPGNGDTSYNQKFKGKATLTADKSSSTAYMQLSSLTSEDSAVYYCARSTYYGGDWYFNVWGAGTTVTVSSASTKGPSVFPLAPSSKSTSGGTAALGCLVKDYFPEPVTVSWNSGALTSGVHTFPAVLQSSGLYSLSSVVTVPSSSLGTQTYICNVNHKPSNTKVDKKVEPKSCDKTHTCPPCPAPERDRGPSVFLFPPKPKDTLMISRTPEVTCVVVDVSHEDPEVKFNWYVDGVEVHNAKTKPREEQYNSTYRVVSVLTVLHQDWLNGKEYKCKVSNKALPAPIEKTISKAKGQPREPQVYTLPPSRDELTKNQVSLTCLVKGFYPSDIAVEWESNGQPENNYKTTPPVLDSDGSFFLYSKLTVDKSRWQQGNVFSCSVMHEALHNHYTQKSLSLSPGK
light: QIVLSQSPAILSASPGEKVTMTCRASSSVSYIHWFQQKPGSSPKPWIYATSNLASGVPVRFSGSGSGTSYSLTISRVEAEDAATYYCQQWTSNPPTFGGGTKLEIKRTVAAPSVFIFPPSDEQLKSGTASVVCLLNNFYPREAKVQWKVDNALQSGNSQESVTEQDSKDSTYSLSSTLTLSKADYEKHKVYACEVTHQGLSSPVTKSFNRGEC
notes: EU numbering; copies: 2 + 2
B6: anti-CD20 (rituximab) human IgG1 L234R/L235E/G236R (antibody)
heavy: QVQLQQPGAELVKPGASVKMSCKASGYTFTSYNMHWVKQTPGRGLEWIGAIYPGNGDTSYNQKFKGKATLTADKSSSTAYMQLSSLTSEDSAVYYCARSTYYGGDWYFNVWGAGTTVTVSSASTKGPSVFPLAPSSKSTSGGTAALGCLVKDYFPEPVTVSWNSGALTSGVHTFPAVLQSSGLYSLSSVVTVPSSSLGTQTYICNVNHKPSNTKVDKKVEPKSCDKTHTCPPCPAPERERGPSVFLFPPKPKDTLMISRTPEVTCVVVDVSHEDPEVKFNWYVDGVEVHNAKTKPREEQYNSTYRVVSVLTVLHQDWLNGKEYKCKVSNKALPAPIEKTISKAKGQPREPQVYTLPPSRDELTKNQVSLTCLVKGFYPSDIAVEWESNGQPENNYKTTPPVLDSDGSFFLYSKLTVDKSRWQQGNVFSCSVMHEALHNHYTQKSLSLSPGK
light: QIVLSQSPAILSASPGEKVTMTCRASSSVSYIHWFQQKPGSSPKPWIYATSNLASGVPVRFSGSGSGTSYSLTISRVEAEDAATYYCQQWTSNPPTFGGGTKLEIKRTVAAPSVFIFPPSDEQLKSGTASVVCLLNNFYPREAKVQWKVDNALQSGNSQESVTEQDSKDSTYSLSSTLTLSKADYEKHKVYACEVTHQGLSSPVTKSFNRGEC
notes: EU numbering; also called 2-37; copies: 2 + 2
B7: anti-CD20 (rituximab) human IgG1 L234T/L235K/G236R (antibody)
heavy: QVQLQQPGAELVKPGASVKMSCKASGYTFTSYNMHWVKQTPGRGLEWIGAIYPGNGDTSYNQKFKGKATLTADKSSSTAYMQLSSLTSEDSAVYYCARSTYYGGDWYFNVWGAGTTVTVSSASTKGPSVFPLAPSSKSTSGGTAALGCLVKDYFPEPVTVSWNSGALTSGVHTFPAVLQSSGLYSLSSVVTVPSSSLGTQTYICNVNHKPSNTKVDKKVEPKSCDKTHTCPPCPAPETKRGPSVFLFPPKPKDTLMISRTPEVTCVVVDVSHEDPEVKFNWYVDGVEVHNAKTKPREEQYNSTYRVVSVLTVLHQDWLNGKEYKCKVSNKALPAPIEKTISKAKGQPREPQVYTLPPSRDELTKNQVSLTCLVKGFYPSDIAVEWESNGQPENNYKTTPPVLDSDGSFFLYSKLTVDKSRWQQGNVFSCSVMHEALHNHYTQKSLSLSPGK
light: QIVLSQSPAILSASPGEKVTMTCRASSSVSYIHWFQQKPGSSPKPWIYATSNLASGVPVRFSGSGSGTSYSLTISRVEAEDAATYYCQQWTSNPPTFGGGTKLEIKRTVAAPSVFIFPPSDEQLKSGTASVVCLLNNFYPREAKVQWKVDNALQSGNSQESVTEQDSKDSTYSLSSTLTLSKADYEKHKVYACEVTHQGLSSPVTKSFNRGEC
notes: EU numbering; also called 2-58; copies: 2 + 2

What was measured:
[1] = target: T1, human FcRn (R&D Systems Cat. No. 8639-Fc) (human, UniProt P55899 24-297; P61769 21-119); test: SPR, FcRn captured; Mean
[2] = target: T1, human FcRn (R&D Systems Cat. No. …); test: SPR, FcRn captured; Expt 2
[3] = target: T1, human FcRn (R&D Systems Cat. No. …); test: SPR, FcRn captured; Expt 3
[4] = target: T1, human FcRn (R&D Systems Cat. No. …); test: SPR, FcRn captured; Expt 1
[5] = target: T2, Human C1q (Sigma Cat. No. 20476), HRP-labelled (human, UniProt P02745 23-245; P02746 28-253; P02747 29-245); test: ELISA, antibody coated, HRP-C1q; Expt 1, buffer alone 0.061
T2 construct: Coupled to horse-radish peroxidase with Lightning-Link kit; also called HRP-labelled C1q

T1 sequence (P55899 24-297 limits assumed, chain 1 of 2): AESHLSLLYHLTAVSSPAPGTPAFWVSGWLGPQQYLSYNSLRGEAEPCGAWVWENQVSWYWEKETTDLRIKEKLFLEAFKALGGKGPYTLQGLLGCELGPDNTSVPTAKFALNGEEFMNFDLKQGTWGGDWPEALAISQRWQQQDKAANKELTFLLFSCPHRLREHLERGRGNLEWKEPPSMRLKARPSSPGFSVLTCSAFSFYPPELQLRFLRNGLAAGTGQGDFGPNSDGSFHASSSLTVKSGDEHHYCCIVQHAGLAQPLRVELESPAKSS
T1 sequence (P61769 21-119 limits assumed, chain 2 of 2): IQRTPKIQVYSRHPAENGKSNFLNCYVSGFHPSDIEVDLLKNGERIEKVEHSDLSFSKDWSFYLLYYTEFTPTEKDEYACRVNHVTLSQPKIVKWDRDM

Binder | Corrected and normalised response (% of wild-type reference) [1] | Corrected and normalised response (% of wild-type reference) [2] | Corrected and normalised response (% of wild-type reference) [3] | Corrected and normalised response (% of wild-type reference) [4] | Mean Absorbance [5]
B1 | 94.3 % of wild-type reference | 93.7 % of wild-type reference | 94.1 % of wild-type reference | 94.9 % of wild-type reference | 0.049 absorbance (450 nm)
B2 | 100 % of wild-type reference | 99.6 % of wild-type reference | 99.5 % of wild-type reference | 101 % of wild-type reference | 0.059 absorbance (450 nm)
B3 | 101 % of wild-type reference | 100 % of wild-type reference | 100 % of wild-type reference | 101 % of wild-type reference | 0.073 absorbance (450 nm)
B4 | 97.1 % of wild-type reference | 96.6 % of wild-type reference | 97.4 % of wild-type reference | 97.3 % of wild-type reference | 0.032 absorbance (450 nm)
B5 | 95.6 % of wild-type reference | 95.4 % of wild-type reference | 96 % of wild-type reference | 95.5 % of wild-type reference | 0.038 absorbance (450 nm)
B6 | 98.4 % of wild-type reference | 98.6 % of wild-type reference | 97.8 % of wild-type reference | 99 % of wild-type reference | 0.048 absorbance (450 nm)
B7 | 100 % of wild-type reference | 100 % of wild-type reference | 100 % of wild-type reference | 99.2 % of wild-type reference | 0.126 absorbance (450 nm)
